The assay concerns the target Recombinant Human TNF-α/TNFSF1A (human, UniProt P01375 77-233). Put plainly: cell-based or functional assay.

Sequence of Recombinant Human TNF-α/TNFSF1A (P01375 77-233 limits assumed): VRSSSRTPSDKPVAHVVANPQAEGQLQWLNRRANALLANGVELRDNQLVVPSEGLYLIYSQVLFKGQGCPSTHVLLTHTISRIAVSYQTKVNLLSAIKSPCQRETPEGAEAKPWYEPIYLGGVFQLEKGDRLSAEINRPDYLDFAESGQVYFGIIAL

B1: DVD3218 (bispecific antibody, IgG1)
VH: EVQLVESGGGLVQPGGSLRLSCAASGFSFSKYWLGWVRQAPGKGLEWVSDIYPGYDYTHYNEKFKDRFTISADTSKNTAYLQMNSLRAEDTAVYYCARSDGSSTYWGQGTLVTVSSGGGGSGGGGSEVQLVESGGGLVQPGGSLRLSCAASGFTFSNYGVEWVRQAPGKGLEWVSGIWADGSTHYADTVKSRFTISRDNSKNTLYLQMNSLRAEDTAVYYCAREWQHGPVAYWGQGTLVTVSS
VL: DIQMTQSPSSLSASVGDRVTITCTSSQNIVHSNGNTYLEWYQQKPGKAPKLLIYKVSNRFSGVPSRFSGSGSGTDFTLTISSLQPEDFATYYCFQVSHVPYTFGQGTKVEIKRGGSGGGGSGDIQMTQSPSSLSASVGDRVTITCKASQLVSSAVAWYQQKPGKAPKLLIYWASTLHTGVPSRFSGSGSGTDFTLTISSLQPEDFATYYCQQHYRTPFTFGQGTKLEIKR
On to B1, for which the “C-Terminal VD huTNFα Neutralization Assay IC50” value was 0.413 nM.

B2: DVD3223 (bispecific antibody, IgG1)
VH: EVQLVQSGAEVKKPGASVKVSCKASGYTFANYGIIWVRQAPGQGLEWMGWINTYTGKPTYAQKFQGRVTMTTDTSTSTAYMELSSLRSEDTAVYYCARKLFTTMDVTDNAMDYWGQGTTVTVSSGGGGSGGGGSEVQLVESGGGLVQPGGSLRLSCAASGFSFSKYWLGWVRQAPGKGLEWVSDIYPGYDYTHYNEKFKDRFTISADTSKNTAYLQMNSLRAEDTAVYYCARSDGSSTYWGQGTLVTVSS
VL: DIQMTQSPSSLSASVGDRVTITCRASQDISQYLNWYQQKPGKAPKLLIYYTSRLQSGVPSRFSGSGSGTDFTLTISSLQPEDFATYFCQQGNTWPPTFGQGTKLEIKRGGSGGGGSGDIQMTQSPSSLSASVGDRVTITCTSSQNIVHSNGNTYLEWYQQKPGKAPKLLIYKVSNRFSGVPSRFSGSGSGTDFTLTISSLQPEDFATYYCFQVSHVPYTFGQGTKVEIKR
Regarding B2, the “N-Terminal VD huTNFα Neutralization Assay IC50” value amounted to 0.002 nM.

B3: DVD3229 (bispecific antibody, IgG1)
VH: EVQLVESGGGLVQPGGSLRLSCAASGFSFSKYWLGWVRQAPGKGLEWVSDIYPGYDYTHYNEKFKDRFTISADTSKNTAYLQMNSLRAEDTAVYYCARSDGSSTYWGQGTLVTVSSASTKGPEVQLVQSGAEVKKPGASVKVSCKASGYTFANYGIIWVRQAPGQGLEWMGWINTYTGKPTYAQKFQGRVTMTTDTSTSTAYMELSSLRSEDTAVYYCARKLFTTMDVTDNAMDYWGQGTTVTVSS
VL: DIQMTQSPSSLSASVGDRVTITCTSSQNIVHSNGNTYLEWYQQKPGKAPKLLIYKVSNRFSGVPSRFSGSGSGTDFTLTISSLQPEDFATYYCFQVSHVPYTFGQGTKVEIKRTVAAPDIQMTQSPSSLSASVGDRVTITCRASQDISQYLNWYQQKPGKAPKLLIYYTSRLQSGVPSRFSGSGSGTDFTLTISSLQPEDFATYFCQQGNTWPPTFGQGTKLEIKR
With B3, the “C-Terminal VD huTNFα Neutralization Assay IC50” value was found to be 0.086 nM.

B4: DVD3231 (bispecific antibody, IgG1)
VH: EVQLVESGGGLVQPGGSLRLSCAASGFSFSKYWLGWVRQAPGKGLEWVSDIYPGYDYTHYNEKFKDRFTISADTSKNTAYLQMNSLRAEDTAVYYCARSDGSSTYWGQGTLVTVSSASTKGPEVQLVQSGAEVKKPGASVKVSCKASGYTFANYGIIWVRQAPGQGLEWMGWINTYTGKPTYAQKFQGRVTMTTDTSTSTAYMELSSLRSEDTAVYYCARKLFTTMDVTDNAMDYWGQGTTVTVSS
VL: DIQMTQSPSSLSASVGDRVTITCTSSQNIVHSNGNTYLEWYQQKPGKAPKLLIYKVSNRFSGVPSRFSGSGSGTDFTLTISSLQPEDFATYYCFQVSHVPYTFGQGTKVEIKRTVAAPSVFIFPPDIQMTQSPSSLSASVGDRVTITCRASQDISQYLNWYQQKPGKAPKLLIYYTSRLQSGVPSRFSGSGSGTDFTLTISSLQPEDFATYFCQQGNTWPPTFGQGTKLEIKR
For the molecule B4, the “C-Terminal VD huTNFα Neutralization Assay IC50” value came out at 0.112 nM.

B5: DVD3228 (bispecific antibody, IgG1)
VH: EVQLVESGGGLVQPGGSLRLSCAASGFSFSKYWLGWVRQAPGKGLEWVSDIYPGYDYTHYNEKFKDRFTISADTSKNTAYLQMNSLRAEDTAVYYCARSDGSSTYWGQGTLVTVSSGGGGSGGGGSEVQLVQSGAEVKKPGASVKVSCKASGYTFANYGIIWVRQAPGQGLEWMGWINTYTGKPTYAQKFQGRVTMTTDTSTSTAYMELSSLRSEDTAVYYCARKLFTTMDVTDNAMDYWGQGTTVTVSS
VL: DIQMTQSPSSLSASVGDRVTITCTSSQNIVHSNGNTYLEWYQQKPGKAPKLLIYKVSNRFSGVPSRFSGSGSGTDFTLTISSLQPEDFATYYCFQVSHVPYTFGQGTKVEIKRGGSGGGGSGDIQMTQSPSSLSASVGDRVTITCRASQDISQYLNWYQQKPGKAPKLLIYYTSRLQSGVPSRFSGSGSGTDFTLTISSLQPEDFATYFCQQGNTWPPTFGQGTKLEIKR
With B5, the “C-Terminal VD huTNFα Neutralization Assay IC50” value was 0.052 nM.

B6: DVD3224 (bispecific antibody, IgG1)
VH: EVQLVQSGAEVKKPGASVKVSCKASGYTFANYGIIWVRQAPGQGLEWMGWINTYTGKPTYAQKFQGRVTMTTDTSTSTAYMELSSLRSEDTAVYYCARKLFTTMDVTDNAMDYWGQGTTVTVSSASTKGPEVQLVESGGGLVQPGGSLRLSCAASGFSFSKYWLGWVRQAPGKGLEWVSDIYPGYDYTHYNEKFKDRFTISADTSKNTAYLQMNSLRAEDTAVYYCARSDGSSTYWGQGTLVTVSS
VL: DIQMTQSPSSLSASVGDRVTITCRASQDISQYLNWYQQKPGKAPKLLIYYTSRLQSGVPSRFSGSGSGTDFTLTISSLQPEDFATYFCQQGNTWPPTFGQGTKLEIKRTVAAPDIQMTQSPSSLSASVGDRVTITCTSSQNIVHSNGNTYLEWYQQKPGKAPKLLIYKVSNRFSGVPSRFSGSGSGTDFTLTISSLQPEDFATYYCFQVSHVPYTFGQGTKVEIKR
As for B6, the “N-Terminal VD huTNFα Neutralization Assay IC50” value was 0.004 nM.

B7: DVD3226 (bispecific antibody, IgG1)
VH: EVQLVQSGAEVKKPGASVKVSCKASGYTFANYGIIWVRQAPGQGLEWMGWINTYTGKPTYAQKFQGRVTMTTDTSTSTAYMELSSLRSEDTAVYYCARKLFTTMDVTDNAMDYWGQGTTVTVSSASTKGPEVQLVESGGGLVQPGGSLRLSCAASGFSFSKYWLGWVRQAPGKGLEWVSDIYPGYDYTHYNEKFKDRFTISADTSKNTAYLQMNSLRAEDTAVYYCARSDGSSTYWGQGTLVTVSS
VL: DIQMTQSPSSLSASVGDRVTITCRASQDISQYLNWYQQKPGKAPKLLIYYTSRLQSGVPSRFSGSGSGTDFTLTISSLQPEDFATYFCQQGNTWPPTFGQGTKLEIKRTVAAPSVFIFPPDIQMTQSPSSLSASVGDRVTITCTSSQNIVHSNGNTYLEWYQQKPGKAPKLLIYKVSNRFSGVPSRFSGSGSGTDFTLTISSLQPEDFATYYCFQVSHVPYTFGQGTKVEIKR
With B7, the “N-Terminal VD huTNFα Neutralization Assay IC50” value came to 0.011 nM.

B8: DVD3227 (bispecific antibody, IgG1)
VH: EVQLVQSGAEVKKPGASVKVSCKASGYTFANYGIIWVRQAPGQGLEWMGWINTYTGKPTYAQKFQGRVTMTTDTSTSTAYMELSSLRSEDTAVYYCARKLFTTMDVTDNAMDYWGQGTTVTVSSASTKGPSVFPLAPEVQLVESGGGLVQPGGSLRLSCAASGFSFSKYWLGWVRQAPGKGLEWVSDIYPGYDYTHYNEKFKDRFTISADTSKNTAYLQMNSLRAEDTAVYYCARSDGSSTYWGQGTLVTVSS
VL: DIQMTQSPSSLSASVGDRVTITCRASQDISQYLNWYQQKPGKAPKLLIYYTSRLQSGVPSRFSGSGSGTDFTLTISSLQPEDFATYFCQQGNTWPPTFGQGTKLEIKRTVAAPDIQMTQSPSSLSASVGDRVTITCTSSQNIVHSNGNTYLEWYQQKPGKAPKLLIYKVSNRFSGVPSRFSGSGSGTDFTLTISSLQPEDFATYYCFQVSHVPYTFGQGTKVEIKR
B8: the “N-Terminal VD huTNFα Neutralization Assay IC50” value was 0.002 nM.

B9: DVD3219 (bispecific antibody, IgG1)
VH: EVQLVESGGGLVQPGGSLRLSCAASGFSFSKYWLGWVRQAPGKGLEWVSDIYPGYDYTHYNEKFKDRFTISADTSKNTAYLQMNSLRAEDTAVYYCARSDGSSTYWGQGTLVTVSSASTKGPEVQLVESGGGLVQPGGSLRLSCAASGFTFSNYGVEWVRQAPGKGLEWVSGIWADGSTHYADTVKSRFTISRDNSKNTLYLQMNSLRAEDTAVYYCAREWQHGPVAYWGQGTLVTVSS
VL: DIQMTQSPSSLSASVGDRVTITCTSSQNIVHSNGNTYLEWYQQKPGKAPKLLIYKVSNRFSGVPSRFSGSGSGTDFTLTISSLQPEDFATYYCFQVSHVPYTFGQGTKVEIKRTVAAPDIQMTQSPSSLSASVGDRVTITCKASQLVSSAVAWYQQKPGKAPKLLIYWASTLHTGVPSRFSGSGSGTDFTLTISSLQPEDFATYYCQQHYRTPFTFGQGTKLEIKR
On to B9, for which the “C-Terminal VD huTNFα Neutralization Assay IC50” value worked out at 2.1 nM.

B10: DVD3221 (bispecific antibody, IgG1)
VH: EVQLVESGGGLVQPGGSLRLSCAASGFSFSKYWLGWVRQAPGKGLEWVSDIYPGYDYTHYNEKFKDRFTISADTSKNTAYLQMNSLRAEDTAVYYCARSDGSSTYWGQGTLVTVSSASTKGPEVQLVESGGGLVQPGGSLRLSCAASGFTFSNYGVEWVRQAPGKGLEWVSGIWADGSTHYADTVKSRFTISRDNSKNTLYLQMNSLRAEDTAVYYCAREWQHGPVAYWGQGTLVTVSS
VL: DIQMTQSPSSLSASVGDRVTITCTSSQNIVHSNGNTYLEWYQQKPGKAPKLLIYKVSNRFSGVPSRFSGSGSGTDFTLTISSLQPEDFATYYCFQVSHVPYTFGQGTKVEIKRTVAAPSVFIFPPDIQMTQSPSSLSASVGDRVTITCKASQLVSSAVAWYQQKPGKAPKLLIYWASTLHTGVPSRFSGSGSGTDFTLTISSLQPEDFATYYCQQHYRTPFTFGQGTKLEIKR
Consider B10, for which the “C-Terminal VD huTNFα Neutralization Assay IC50” value amounted to 0.479 nM.

B11: DVD3222 (bispecific antibody, IgG1)
VH: EVQLVESGGGLVQPGGSLRLSCAASGFSFSKYWLGWVRQAPGKGLEWVSDIYPGYDYTHYNEKFKDRFTISADTSKNTAYLQMNSLRAEDTAVYYCARSDGSSTYWGQGTLVTVSSASTKGPSVFPLAPEVQLVESGGGLVQPGGSLRLSCAASGFTFSNYGVEWVRQAPGKGLEWVSGIWADGSTHYADTVKSRFTISRDNSKNTLYLQMNSLRAEDTAVYYCAREWQHGPVAYWGQGTLVTVSS
VL: DIQMTQSPSSLSASVGDRVTITCTSSQNIVHSNGNTYLEWYQQKPGKAPKLLIYKVSNRFSGVPSRFSGSGSGTDFTLTISSLQPEDFATYYCFQVSHVPYTFGQGTKVEIKRTVAAPDIQMTQSPSSLSASVGDRVTITCKASQLVSSAVAWYQQKPGKAPKLLIYWASTLHTGVPSRFSGSGSGTDFTLTISSLQPEDFATYYCQQHYRTPFTFGQGTKLEIKR
As to B11, the “C-Terminal VD huTNFα Neutralization Assay IC50” value came to 0.243 nM.

The record behind these values is patent publication US20140271457A1 (AbbVie / Abbott, published 2014).
